This data set in a line: label from the status in PepcDB records.
With “MNLHTKTWVQRLPVPIDVAWDFFSQPGNLARITPPEMMLKAEGGNAGTAIYEGMKLNFVLYPFMMIPVRWTTEIMKVSKPDFFEDRQLSGPYEQWYHRHLFRDIEGGTEMTDIVEYALPFDLFGEVVEALIVGPRLDEVFEYRRCRVAEILGEMASETRLEHHHHHH”, the protein production entry is given as “not failed”. The entry for “MTHKVAFSFADGKTLFFPVKANEILLDAALRNGIKIPLDCREGVCGTCQGRCESGQYSQDYVDEEALSPQDLEQRKMLTCQTRVQSDAAFYFDFDSSLCHSADPVQLQGSVIDVRQVSESTAILHLDLGGHQAPLDFLPGQYARLSIPGTGTSRAYSFANRPAADNQLQFLIRLLPDGVMSNYIRERCLVGDTLQLEAPLGAFYLRQISRPLILVAGGTGLSALLAMLEQIVEQGCQQPVHLYYGVRHSRDLCELERIQAHGERLADFRFTPVISDANPDWPGKRGYISEHFDSSELRDQDTDMYVCGPPPMVDSIRIWLQEQQLNRVQLYYERFTESNI” is “failed”; for “MKIIFSASPANRAAAYALRQAVFVEERGISADVEFDVKDTDQCEYAVLYLQPDLPITTLRLEPQADHVMRFGRVCTRKAYRGHGWGRQLLTAAEEWATQRGFTHGEIHGELTAQRFYELCGYRVTAGPYDEDGAPVVIMHKQLL” it is “not failed”; for “MRIKNKCLVLLIPLGISIMFDIRVKAFQPVSHYVVIEQAESKMSNDSIIRKAIEAYPNVAAWGSVGPDLGYMQVGELGDYSPWGDRYHYYKVGTYAAKQLKNALETRDMKKIAFAAGWISHVTGDLACHGIYVNPECGVYLDNKDGRKQHKHMEAEAEPYAWVNIAGHSINDYNSNNMSNNVFKGTDDIPFDLMNETSKEVYGQSPSTAEEKLWASTLLTGLRTGVGYSYTDYNESKQFLSINSREQRLNASFSQGINQCYKLLTYSENGDYSKFTDRWNLDVGKSSSPISSLTTIISTGTNLGSGTDDDIYFGIHLNNGQKKEWLLDKETYNDFENGATDEYYLYINDMDFLPTMVDKVWVRKNSTGSFAGNWFFKALRIDANGNDVLSVSPNEWITDSNSQAEFNSDWSSVTNLTDPEF” it is “failed”. The entry for “MTAKAACSDFLHFFRSWVSNPLRVAAIAPSGDSLARIMTSEIAALDGPIIELGPGTGVFTRALLARGVSEADLTLIEYGPEFITSLQARFPTARVLQMDAAHLAHADIFEGEPVGAVVSGLPLLSMSPRKIASILAGAFAYMRPGGAVYQFTYGPRCPVPRPILDRLGLKAVRIGGTVRNLPPASVYRISRRKPLELSRERFSYRSSAADVDDVAAFSNETGG” is “failed”; for “TVHKQDGKVLEIELSSLKEALSFVSLIDGYYRLTADAHHYLCKEVAPPAVLENIHSNCHGPISMDFAISKLKKAGNQTGLYVLRCSPKDFNKYFLTFAVERENVIEYKHCLITKNENGEYNLSGTKRNFSNLKDLLNCYQMETVRSDSIIFQFTKCCPPKPKDKSNLLVFRTNGISDVQISPTLQRHNNVNQMVFHKIRNEDLIFNESLGQGTFTKIFKGVRREVGDYGQLHKTEVLLKVLDKAHRNYSESFFEAASMMSQLSHKHLVLNYGVCVCGEENILVQEFVKFGSLDTYLKKNKNSINILWKLGVAKQLAWAMHFLEEKSLIHGNVCAKNILLIREEDRRTGNPPFIKLSDPGISITVLPKDILQERIPWVPPECIENPKNLNLATDKWSFGTTLWEICSGGDKPLSALDSQRKLQFYEDKHQLPAPKWTELANLINNCMDYEPDFRPAFRAVIRDLNSLFTPDYELLTENDMLPNMRIGALGFSGAFEDRDPTQFEERHLKFLQQLGKGNFGSVEMCRYDPLQDNTGEVVAVKKLQHSTEEHLRDFEREIEILKSLQHDNIVKYKGVCYSAGRRNLRLIMEYLPYGSLRDYLQKHKERIDHKKLLQYTSQICKGMEYLGTKRYIHRDLATRNILVENENRVKIGDFGLTKVLPQDKEYYKVKEPGESPIFWYAPESLTESKFSVASDVWSFGVVLYELFTYIEKSKSPPVEFMRMIGNDKQGQMIVFHLIELLKSNGRLPRPEGCPDEIYVIMTECWNNNVSQRPSFRDLSLRVDQIRDSIAA” it is “failed”. The entry for “MNESERKIVEEFQKETGINFKNEELLFRALCHSSYANEQNQAGRKDVESNEKLEFLGDAVLELFVCEILYKKYPEAEVGDLARVKSAAASEEVLAMVSRKMNLGKFLFLGKGEEKTGGRDRDSILADAFEALLAAIYLDQGYEKIKELFEQEFEFYIEKIMKGEMLFDYKTALQEIVQSEHKVPPEYILVRTEKNDGDRIFVVEVRVNGKTIATGKGRTKKEAEKEAARIAYEKLLKERS” is “not failed”; for “MRYGLRVEAITLWILGGLASLEAIPKEWNRELVIALAGPAVSILTGLACYAALFALPASAQVTLFVIGWLAVTNIFLAVFNMLPAFPMDGGRVLRALLARTRPYATATRIAARIGTGFAVLFAVVGVLSFSPLLLLLALFVYGAASSESRTVALAALLDGLSVDDVASPLDATIEANASVEDLVDRMFADRRTEFAVTRGGDVVGVVTVDDFRELSKAEREADTVADLMEADLPRFPAAMAAFDALVELDTARASAAFVDGPEGTRVVSRDDFSSAMEMRRLVDSPEPF” it is “failed”. Take “MIKETVFKSFDTPAALEQQLANKIASQLQEAVDARGKASLVVSGGSTPLKLFELLSMKSIDWSDVYITLADERWVDVEDSASNERLVREHLLQNRAANAKFRGLKNMFSTAEAGADMTCESLSNFPRPFDVVVLGMGNDGHTCSWFPCSAELNDALTTQALCVATNPTTAPHGRITLSKNAILNSRQIYLHLVGEQKLSVYRQALENDDVNAMPIRAVLAQRKTPVDVFWSA”: the protein production result is listed as “failed”.

On to “MDSITQAALGASIAGAVAGKTLGRSALLTGALLGTLPDLDVVIDYGTAVANFTQHRGFSHSLFILAPLSLLIAWGLWRWKPLISYQRWLALVGLILITHPLLDAFTTYGTQLFWPIGPPVAINSIFIIDPLYTLPLLAGCLAFLYRPPASRTVAAGLLVSSLYLGWTLIAQQIITDRVRPALANAGMEQAALMVQPMPFNTVLWRATAVSAGQRIEVVTGFLDASDELVLERFPRQPELARLVAELPEARRLEWFTGGFLDYQQNGTQITATDIRLGIPGAHPFTFILAETAEDGLQPLASDRLPRPALNRAALPLLWDRMTGQVPVLCLATLSVPNHGNSC”, for which the protein production entry is listed as “failed”. For “MPAERDSSAAWAVCVYCASGPQHPELLGVAAELGEAIAERGWTLVWGGGRVSAMGAVASAARARGGRTVGVIPTVLMRREIADADADELIVSDTLHERKQIMEDRADAFIALPGGIGTLDEVLDAWTTGFLGLHAKPIVLLDPIGHYEGLWLWLSGLLDSGYITQAAMDRVVLVDKVGAALEACAPG”, the protein production result is “failed”. The entry for “MAAFTGTTDKCKACDKTVYVMDLMTLEGMPYHKSCFRCSHCNGTLVICNYSSMDGVLYCKTHFEQLFKESGNFSKNFQTAGKTEKSNDAAPNRLSSFFSGTQDKCAACKKTVYPLEKMTMEGESYHKTCFRCAHSGCPLTHSSYAALDGVLYCKVHFSQLFLEKGNYNHVLQAAANHRRSTAEEDKTEPKEDEANPTEEETSDAAAEEHES” is “failed”.

Take “YLKVFDLDWHPDGMLDAKPALASADWKGLAELAQLSHKALEDAGLPQFEGSNAWAISGSRTQSGKPILAGDPHIRFSVPSVWYEAQLSAPGFELYGHFPALNPFAFLGHNMDFGWSLTMFQNDDVDLIAEKTNPDNPNQVWYHGQWVDMKRTEQQIAVKGQAPVTLTLIESPHGPIVNNVMGKNAGQTPIAMWWSFLVSANPVLDGFYDANRADTLDKMRSAAEKIQSPGLNIVWANAKGDIGWWAAAQLPIRPEGVNPGFILDGSTAQADKLGFYPFSANPHEENPARGYIVSANFQPLSPTGMQIPGYYNPAERGQELNRQLSDSSIKWDLAASKALQLSTQTDYAPSILRPLIPVLRSAISDPDELALVERLASWKGDYPVDSVGATLFN”: the protein production entry was “failed”. As for “MDKNTRVGKRKKRNKAMRIFWSVMAVILVAIGGFALYEYNTVKNAADTAYRSGGLGNAENGSKNSVISNSKPIAILLMGTDTGALGRTYKGRTDSIMVAVLNPKTKKTTLVSFERDQQVNLPDYPENSPSKLNAAYAYGNAKELAKVLKKYYNIPINAYVLINMGGLKTIVNKVVGVDIAPILSFSYEGYTFTKGKTTHMDGAKALAYSRMRYDDPEGDYGRQKRQRQVLSALLNKAESATTLLNSSFISSLSKQVQTDFTFSDMTSMAKRYLAATKDLKTDYTHGTSYMQDGVSYQKVSVSERQRISNLIRKTLGLKTKTVSTDSIDTSTSSSSSSSSTTTDSDTTGGAGNTAGPSDNGAAAGNGADSGTTGGYSAGNDQNNSTGY”, the protein production result is reported as “failed”. The entry for “RETYPDAVKICNICHSLLIQGQSCETCGIRMHLPCVAKYFQSNAEPRCPHCNDYWPHEIPK” is “not failed”; for “GRDFAVDTKIETIGLTGSLSFKVNDNFSLGAGVIIQRTSGFVSQNLDLYASAANSPGMGGIPFPASNSSALMRVKVDNTSPGFFAGAVWKPTDRDTLGFAYHAKIRNKLKGHYNLYDHDGGLTEGAIEGGTPGLAYPGLDLRMGASASARLDIPAYASLDWVHQFNDRLSLGASATWTEWSSFQDLTLKSHGNTIVSIPYTYRNTWTLAVGGDYKVTDQWTMRAGVAYDQTPTHNATRDPRIPDGDRYFASLGAGYRFQSMPELSIDAAYSRQFVKEVPLKTV” it is “failed”.

“MSYDVIVRNGLWFDGTGRPPQVRTLGIRDGVVATVSAKPLDETGCPEVIDAGGKWVVPGFIDVHTHYDAEVLLDPGLRESVRHGVTTVLLGMCSLSTVYSDAEDAADLFSRVEAVPRQFVLGALESRKTWSNPAEYVAAIDALPLGPNIASLLGHSDLRASVLGLDRATTRGVVPTDDELETMADRLDAALDAGMLGMSGMDAAIDKLDGDRFRSRALPSTFATWRERRRLIKVLRKRGRILQSAPNVAKAQEALNFFLESSSLFGRRRGVRMSLLVSADAKSSPGAARVIGMGTRLLNKTLDAKVRFQHLPVPFELYSDGIDLPVFEEFGAGTAALHLRDQLERNKLLADPEYRRRFRRSFDRRKLGPTLWHRDFHDATIVECPDESLIGKTFGRIADERGIHPLDAFLDVLVDNGEKNVRWTTIVANHRPKVLDQLANDPAVHMGFSDAGAHLRNMAFYNYPLRLLKRVRDAQLSGRPFLTTERAVYRLTAEVADWFGVDAGTLREGDRADFVVIDPNCLNSDVDAYHEETVPFYGGLSRMVNRNDDAVVATAVNGTVVFGKGEFRDGYGDTVKSGRYLRAGADSRLKTAVLEHHHHHH”: the protein production entry was “failed”. For “MDQNAILLALGGIGAAALLSQWLAWRLRLPAILFLLLSGIVAGPLLGWLDPDEMFGPLLFPLVSLAVALILFEGSLTLHFSEWKEIGTVVHRMVTIGALSTWGVIALAAHYLLDFSWEMALLFGTLTLVTGPTVIVPMLRVVRPKAAVANILRWEGIVIDPIGALLAVVVYSFIISSGEGDGWLHSLQTFGGVILCGSLFGILGGWALGIVLRRHWLPDYLHNLATLAAVLGVFIASNRVMHESGLLAVTLMGMGLANMKGVDVRQILHFKENLSVLLISGLFILLAARLDINALLGLGPAALLVLLLIQFVARPLNVALSTWGSPLSWRERALLSWIAPRGIVAAAVSAIFAIRLSAEGHAQAALLVPLTFLVIIGTVVLQSATARPLARLLKVAEPSPSGYLIVGANPVGRAIGKALKSLGSRVLLTDSSWENIRAARMDNLPTYFGNPTSQHAEAHLDLVGIGHLLGVSPAGELNTLAAMRFRHEFGHRQLFGLPTSQEAKRTDKHRSSDEHRGRPLGQRPLTYAQFASLLSRGAEIRTTLLTDTFGWNDYQALHGESAILLFARDPNGRMHVATPQSTLAPGTGWTLLSLIDAEPSVSKSQATEIAD” the value was “failed”; for “MTHATSTETIHYVNEDGDQVFEDGGGKLDFTRTVTIDDVTNEVVEYGEWTPVTDDEFAAVTSPDKDGYTPDTSEVAAQKPDMTDGPDGTVKDVEVTVTYTANPAVATITYVDDDENGKLEHHHHHH”, “failed”; for “VTDILREIGMIARALDSISNIEFKELSLTRGQYLYLVRVCENPGIIQEKIAELIKVDRTTAARAIKRLEEQGFIYRQEDASNKKIKRIYATEKGKNVYPIIVRENQHSNQVALQGLSEVEISQLADYLVRMRKNVSEDWEFVKKGNTRNY”, “not failed”.

(Values after a protein production outcome set (Wang et al. 2014).)
